In the supplement of paper PMC12042874:
± gives the uncertainty stated by the source.

Assay: amyloid nucleation score (Sup35N fusion, yeast selection) (log enrichment); library NNK3; higher = more nucleation; inactive = no reads after selection
Method in brief: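 Libraries of peptides of 20 random codons fused to Sup35N were expressed in psi-negative yeast and induced 24 hours with 100 μM copper sulfate. Selection was 7 days at 30°C on medium lacking adenine and uracil, and plasmid inserts were Illumina-sequenced before and after selection. Nucleation score is the DiMSum log enrichment of output over input reads, centred on the mode score of non-aggregating sequences, and sequences with under 100 input reads were left out.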

Substance	amyloid nucleation score
LFGQVVGVDFFNWWCFEMHK	inactive
LFLKFDNSSWLMLKVMDTNI	0.961 ± 0.19
LFLRDNF	inactive
LFLSMGYLDGFYPIRSISYL	inactive
LFMINLDPASMVHMTPCFTN	inactive
LFMLIFGCVHARNYFKPKKV	inactive
LFNLL	inactive
LFNYVEEIRAVRRIRLGYIK	inactive
LFQLHMVLSF	inactive
LFRHLVNRLNLTSTAKYHGF	inactive
LFSQHYWIVSIFIASWIRYC	inactive
LFSSVC	inactive
LFSVMSKYSFRWLRDNFCHA	inactive
LFTDPCCTIGMSFRV	1.08 ± 0.075
LFVCRLMENLEGY	inactive
LFVYHCYIFSMRSRCMSHLY	inactive
LFYDCELGLTSVRWLGWGRN	inactive
LFYIWQSFQFRN	inactive
LGCTGALNNRCCERQANGRQ	inactive
LGEWYWYYFFRARR	inactive
LGKGICKSTWLQQCRGKSDF	inactive
LGPAVELGMT	inactive
LGPMAGRVSRYCNAARLTRC	-0.999 ± 2.4

Substance	amyloid nucleation score
LGQFAIAQYFNRYSRGPMLW	inactive
LGRCRWMDPHILLVLHVPCE	inactive
LGRLVG	inactive
LGRPYQHVWYIHSEVKGVEY	0.116 ± 0.28
LGRRLAMSV	0.692 ± 0.19
LGSLPGGETLHCLNRFQRLS	inactive
LGSMAINCNERCITWCHRFI	0.668 ± 0.25
LGTGSLNHST	inactive
LGVRCYNFIRFKYLSCLRLP	inactive
LGYIQEN	inactive
LHAFLEVSVRYTKSRST	inactive
LHALFVLSMGQA	inactive
LHEEGCATVLKVGCALTSEC	inactive
LHEENA	inactive
LHIHRFWQQPHTNAGRIPHP	inactive
LHKLVLMINDRPYLKPS	inactive
LHVDS	inactive
LHVSWGGLSGDTLFTRKVGV	inactive
LHVYTSILWWTYKVDVWLLS	inactive
LHYKCNDVHQNGMLELCYLN	inactive
LIACNVPVVEVRTSIGVKDI	inactive
LIADHIVRSSSLMSWFSPSR	inactive
LIEDVYLWLCYHRVGYLSAS	inactive

Substance	amyloid nucleation score
LIFFRVVSQLFKFSLRDLPL	inactive
LIGCVLGSLFLRDIFIYCLM	0.409 ± 0.67
LIHFV	inactive
LIILWRQ	1.27 ± 0.079
LINGTGDRMYTDLLL	inactive
LIPQRDNMGGGFRTFSLCYV	inactive
LIRMFISVMSYCMTVGLGMG	inactive
LIRTIEYLGRRISSQGCLHT	inactive
LISAYVGWDICLASML	inactive
LIVFWDGFMCT	inactive
LIVNSRSVFNITHFLNINYQ	2.1 ± 0.077
LIYLYWGLFVTSNSLETCR	1.4 ± 0.086
LIYVFIIFVMIFWVCCTMRS	0.166 ± 0.42
LKADRVVSFFWLCSFIFTSI	inactive
LKIFKCI	inactive
LKKVCDECRFSESPLVPEVA	1.06 ± 0.13
LKLTMSFMSQDLIIHVIDCS	inactive
LKMMSLLTSEATSMHHGVNW	inactive
LKNPARYYYVVQIFMVLSTA	inactive
LKRCRLQMAGYELSWDQGTM	inactive
LKRLSCFTGSPR	inactive
LKRNVNYVNLNVFRLFLK	inactive
LKRYDVQSSTGVNLTYGTYT	inactive

Substance	amyloid nucleation score
LKSSPFNYSVGIS	inactive
LKVVLYGVHQSCEYMRSRLS	inactive
LKYSSDQYLCRTFLGISGFG	inactive
LLAWRHEMLMFVPDNLSYGG	inactive
LLCLLQYLWPRRDSYYACLR	0.782 ± 0.18
LLCND	inactive
LLCRE	inactive
LLDSVDMLGFVMWVFGEVTN	inactive
LLESTSF	inactive
LLFENIQK	inactive
LLGRKRA	inactive
LLHHFFAVFDSARETKWDWD	0.247 ± 0.34
LLKLNS	inactive
LLLFRGAYRLQISAFCLCTE	inactive
LLLNMM	inactive
LLLRCANHFCYMDATDIYFR	inactive
LLLSEREGIYVVWVWCRWPV	inactive
LLNPCKRSCVNLRMHTQPSS	inactive
LLNYFRLMCYRSFL	inactive
LLRRNINMFSIQFFSRVTWL	-0.141 ± 0.96
LLRTL	inactive
LLSADFSFSSVEMKLARLGV	1.22 ± 0.18
LLSAMYNHPADMIAKLGKGG	inactive

Substance	amyloid nucleation score
LLSDICFCYYAREIRNSGCS	inactive
LLSIAVVDVPSRLSRCITLL	inactive
LLTMHWVREWSDGLYCKGKL	inactive
LLTVEVPLWKIFDAML	inactive
LLVCSWC	2.1 ± 0.093
LLVSFLVVLSWAVRFSRMGD	inactive
LLVVYIFTGPLTVPHVWTIE	inactive
LMANVGPAWLQSFAIRGTSH	inactive
LMCDWGVY	-0.175 ± 0.85
LMDFLKYAMFRGTMVCW	inactive
LMHGPMLVFRFVASNSCRER	inactive
LMLRVHGMW	inactive
LMNTYL	1.71 ± 0.099
LMPSDFISSYNSLYDGCLGG	inactive
LMSNHCGKYWRHFSWIMTVF	inactive
LMSSGVGLPFSDTSAWLIVW	inactive
LMSTYVTFFRSCKPSSCVFV	inactive
LMVASISNVQRRIVRVKLCD	inactive
LMWTGF	inactive
LMYAVLGTQTVSLSAFKSR	-0.3 ± 1.1
LNDLCKMPVSLFIHGLCLMT	inactive
LNFDNRNFFGDMSAESATPF	inactive
LNFNSWNGLKYR	inactive

Substance	amyloid nucleation score
LNGMFG	inactive
LNHGVCIFYDQFANLELPPR	2.09 ± 0.067
LNIRGSFCFYGSWIVADFHM	0.336 ± 0.38
LNKVIRCEAYRCKTMN	inactive
LNLCTRLVFNPVTFQGNTFK	inactive
LNMCLSLVSVLRAVSVYLWT	inactive
LNPLMFKMRFLMEYNLAWGV	0.891 ± 0.28
LNVCVMEKNSNLRWSYWDLC	1.09 ± 0.15
LNVLAPFGWLARFIILAIP	inactive
LNYVCCCIQSPPEFNIS	3.36 ± 0.07
LPFIRV	0.007 ± 0.27
LPMQYKLLSVFVADFFTIFV	-1.07 ± 1.7
LPVPGTPLKKAVGGIIRGCG	inactive
LQHWPRTFWMGSRYAYLFSL	inactive
LQRIGIYMTTFCENRCPDAE	inactive
LQRVFLENRTSVYSVTG	inactive
LQSGDRIVTDSYVRAYTMHV	inactive
LQTFDYQRVWNKCLSEFSLE	inactive
LQVARIMVSWIDQCGENRTD	inactive
LQVSIRLTLTNHVDRHTMPM	1.36 ± 0.15
LQYNISVWELC	inactive
LRAFMYLFTYKTWIRTSNGV	inactive
LRAICKSCGVASGYVAAPRA	-0.478 ± 0.52

Substance	amyloid nucleation score
LRASTPYHPMLFELGKLALI	inactive
LRDTGWLIGLMCCSIQIGSG	2.13 ± 0.069
LRGARCYKSNRVIGVLCGSV	inactive
LRHWRMRLSIGN	inactive
LRKFFHLLQIIMERNINRSI	inactive
LRLMAGNGSSKVGPIKMPWY	inactive
LRLQRDPCSNSLSVLSCIFC	2.63 ± 0.06
LRLVTMSYWPRYLLRRKCIR	inactive
LRNLNK	inactive
LRPCRDRRFLVPDDYSSVFF	inactive
LRPNLQSDVPRRYTMCGTHA	inactive
LRSDMLVVPRIFFACFWSIK	inactive
LRTWLL	inactive
LRVLAP	0.815 ± 0.16
LRVRLCSGSSRIWLEVLVRR	inactive
LRVYLLAWL	0.781 ± 0.16
LRWLDVLDHTLDIYVSNESI	inactive
LRWYPVDMI	inactive
LSDAR	inactive
LSDFL	inactive
LSDGGAFLLIRHVFVWGFVT	inactive
LSEIGIPVAVSFKPADSLGL	inactive
